Laboratory results published in patent publication US20250073302A1 (PURDUE RESEARCH FOUNDATION, published 2025).
Non-standard residues stand in square brackets, D forms with d. Bpa = N[C@@H](Cc1ccc(C(=O)c2ccccc2)cc1)C(=O)O; dBpa = N[C@H](Cc1ccc(C(=O)c2ccccc2)cc1)C(=O)O; dPhe(3,4-F2) = N[C@H](Cc1ccc(F)c(F)c1)C(=O)O; Phe(3-F) = N[C@@H](Cc1cccc(F)c1)C(=O)O; Phe(4-F) = N[C@@H](Cc1ccc(F)cc1)C(=O)O; dPhe(3-F) = N[C@H](Cc1cccc(F)c1)C(=O)O; dPhe(4-F) = N[C@H](Cc1ccc(F)cc1)C(=O)O; dPra = C#CC[C@@H](N)C(=O)O; Dap = NC[C@H](N)C(=O)O

B1: CyPPS17 (peptide)
peptide: cyclo(T[dL]F[dY]R[dA])
SMILES: CC(C)C[C@H]1NC(=O)[C@H]([C@@H](C)O)NC(=O)[C@@H](C)NC(=O)[C@H](CCCNC(=N)N)NC(=O)[C@@H](Cc2ccc(O)cc2)NC(=O)[C@H](Cc2ccccc2)NC1=O
B2: CyPPS31 (peptide)
peptide: cyclo(T[dL][Phe(3-F)][dF]R[dA])
SMILES: CC(C)C[C@H]1NC(=O)[C@H]([C@@H](C)O)NC(=O)[C@@H](C)NC(=O)[C@H](CCCNC(=N)N)NC(=O)[C@@H](Cc2ccccc2)NC(=O)[C@H](Cc2cccc(F)c2)NC1=O
B3: CyPPS16 (peptide)
peptide: cyclo(T[dL]Y[dF]R[dA])
SMILES: CC(C)C[C@H]1NC(=O)[C@H]([C@@H](C)O)NC(=O)[C@@H](C)NC(=O)[C@H](CCCNC(=N)N)NC(=O)[C@@H](Cc2ccccc2)NC(=O)[C@H](Cc2ccc(O)cc2)NC1=O
B4: CyPPS12 (peptide)
peptide: cyclo(T[dI]F[dF]R[dA])
SMILES: CC[C@@H](C)[C@H]1NC(=O)[C@H]([C@@H](C)O)NC(=O)[C@@H](C)NC(=O)[C@H](CCCNC(=N)N)NC(=O)[C@@H](Cc2ccccc2)NC(=O)[C@H](Cc2ccccc2)NC1=O
B5: CyPPS29 (peptide)
peptide: cyclo(T[dL]L[dF]R[dA])
SMILES: CC(C)C[C@@H]1NC(=O)[C@@H](CC(C)C)NC(=O)[C@H]([C@@H](C)O)NC(=O)[C@@H](C)NC(=O)[C@H](CCCNC(=N)N)NC(=O)[C@@H](Cc2ccccc2)NC1=O
B6: CyPPS34 (peptide)
peptide: cyclo(TAF[dF]A[dR])
SMILES: C[C@@H]1NC(=O)[C@H]([C@@H](C)O)NC(=O)[C@@H](CCCNC(=N)N)NC(=O)[C@H](C)NC(=O)[C@@H](Cc2ccccc2)NC(=O)[C@H](Cc2ccccc2)NC1=O
B7: CyPPS21 (peptide)
peptide: cyclo(T[dL]F[dBpa]R[dA])
SMILES: CC(C)C[C@H]1NC(=O)[C@H]([C@@H](C)O)NC(=O)[C@@H](C)NC(=O)[C@H](CCCNC(=N)N)NC(=O)[C@@H](Cc2ccc(C(=O)c3ccccc3)cc2)NC(=O)[C@H](Cc2ccccc2)NC1=O
B8: CyPPS10 (peptide)
peptide: cyclo(T[dD]F[dF]R[dA])
SMILES: C[C@H]1NC(=O)[C@H](CCCNC(=N)N)NC(=O)[C@@H](Cc2ccccc2)NC(=O)[C@H](Cc2ccccc2)NC(=O)[C@@H](CC(=O)O)NC(=O)[C@H]([C@@H](C)O)NC1=O
B9: CyPPS22 (peptide)
peptide: cyclo(T[dL]F[dF]R[dS])
SMILES: CC(C)C[C@H]1NC(=O)[C@H]([C@@H](C)O)NC(=O)[C@@H](CO)NC(=O)[C@H](CCCNC(=N)N)NC(=O)[C@@H](Cc2ccccc2)NC(=O)[C@H](Cc2ccccc2)NC1=O
B10: CyPPS32 (peptide)
peptide: cyclo(T[dL][Bpa][dF]R[dA])
SMILES: CC(C)C[C@H]1NC(=O)[C@H]([C@@H](C)O)NC(=O)[C@@H](C)NC(=O)[C@H](CCCNC(=N)N)NC(=O)[C@@H](Cc2ccccc2)NC(=O)[C@H](Cc2ccc(C(=O)c3ccccc3)cc2)NC1=O
B11: CyPPS20 (peptide)
peptide: cyclo(T[dL]F[dPhe(3,4-F2)]R[dA])
SMILES: CC(C)C[C@H]1NC(=O)[C@H]([C@@H](C)O)NC(=O)[C@@H](C)NC(=O)[C@H](CCCNC(=N)N)NC(=O)[C@@H](Cc2ccc(F)c(F)c2)NC(=O)[C@H](Cc2ccccc2)NC1=O
B12: CyPPS18 (peptide)
peptide: cyclo(T[dL]F[dPhe(4-F)]R[dA])
SMILES: CC(C)C[C@H]1NC(=O)[C@H]([C@@H](C)O)NC(=O)[C@@H](C)NC(=O)[C@H](CCCNC(=N)N)NC(=O)[C@@H](Cc2ccc(F)cc2)NC(=O)[C@H](Cc2ccccc2)NC1=O
B13: CyPPS28 (peptide)
peptide: cyclo(T[dV]F[dF]A[dR])
SMILES: CC(C)[C@H]1NC(=O)[C@H]([C@@H](C)O)NC(=O)[C@@H](CCCNC(=N)N)NC(=O)[C@H](C)NC(=O)[C@@H](Cc2ccccc2)NC(=O)[C@H](Cc2ccccc2)NC1=O
B14: CyPPS15 (peptide)
peptide: cyclo(T[dL][Phe(4-F)][dF]R[dA])
SMILES: CC(C)C[C@H]1NC(=O)[C@H]([C@@H](C)O)NC(=O)[C@@H](C)NC(=O)[C@H](CCCNC(=N)N)NC(=O)[C@@H](Cc2ccccc2)NC(=O)[C@H](Cc2ccc(F)cc2)NC1=O
B15: CyPPS25 (peptide)
peptide: cyclo([dL]F[dF]K[dA])
SMILES: CC(C)C[C@H]1NC(=O)[C@@H](C)NC(=O)[C@H](CCCCN)NC(=O)[C@@H](Cc2ccccc2)NC(=O)[C@H](Cc2ccccc2)NC1=O
B16: CyPPS5 (peptide)
peptide: cyclo(T[dL]F[dA]R[dA])
SMILES: CC(C)C[C@H]1NC(=O)[C@H]([C@@H](C)O)NC(=O)[C@@H](C)NC(=O)[C@H](CCCNC(=N)N)NC(=O)[C@@H](C)NC(=O)[C@H](Cc2ccccc2)NC1=O
B17: CyPPS30 (peptide)
peptide: cyclo(T[dL]R[dF]R[dA])
SMILES: CC(C)C[C@H]1NC(=O)[C@H]([C@@H](C)O)NC(=O)[C@@H](C)NC(=O)[C@H](CCCNC(=N)N)NC(=O)[C@@H](Cc2ccccc2)NC(=O)[C@H](CCCNC(=N)N)NC1=O
B18: CyPPS35 (peptide)
peptide: cyclo(T[dA]F[dF]A[dR])
SMILES: C[C@@H]1NC(=O)[C@@H](Cc2ccccc2)NC(=O)[C@H](Cc2ccccc2)NC(=O)[C@@H](C)NC(=O)[C@H]([C@@H](C)O)NC(=O)[C@@H](CCCNC(=N)N)NC1=O
B19: CyPPS6 (peptide)
peptide: cyclo(T[dL]F[dF]A[dR])
SMILES: CC(C)C[C@H]1NC(=O)[C@H]([C@@H](C)O)NC(=O)[C@@H](CCCNC(=N)N)NC(=O)[C@H](C)NC(=O)[C@@H](Cc2ccccc2)NC(=O)[C@H](Cc2ccccc2)NC1=O
B20: CyPPS11 (peptide)
peptide: cyclo(T[dK]F[dF]R[dA])
SMILES: C[C@H]1NC(=O)[C@H](CCCNC(=N)N)NC(=O)[C@@H](Cc2ccccc2)NC(=O)[C@H](Cc2ccccc2)NC(=O)[C@@H](CCCCN)NC(=O)[C@H]([C@@H](C)O)NC1=O
B21: CyPPS3 (peptide)
peptide: cyclo(T[dA]F[dF]R[dA])
SMILES: C[C@H]1NC(=O)[C@H](CCCNC(=N)N)NC(=O)[C@@H](Cc2ccccc2)NC(=O)[C@H](Cc2ccccc2)NC(=O)[C@@H](C)NC(=O)[C@H]([C@@H](C)O)NC1=O
B22: CyPPS36 (peptide)
peptide: cyclo(A[dA]F[dF]A[dR])
SMILES: C[C@@H]1NC(=O)[C@@H](CCCNC(=N)N)NC(=O)[C@H](C)NC(=O)[C@@H](Cc2ccccc2)NC(=O)[C@H](Cc2ccccc2)NC(=O)[C@@H](C)NC1=O
B23: CyPPS27 (peptide)
peptide: cyclo(TVF[dF]A[dR])
SMILES: CC(C)[C@@H]1NC(=O)[C@H]([C@@H](C)O)NC(=O)[C@@H](CCCNC(=N)N)NC(=O)[C@H](C)NC(=O)[C@@H](Cc2ccccc2)NC(=O)[C@H](Cc2ccccc2)NC1=O
B24: CyPPS4 (peptide)
peptide: cyclo(T[dL]A[dF]R[dA])
SMILES: CC(C)C[C@H]1NC(=O)[C@H]([C@@H](C)O)NC(=O)[C@@H](C)NC(=O)[C@H](CCCNC(=N)N)NC(=O)[C@@H](Cc2ccccc2)NC(=O)[C@H](C)NC1=O
B25: CyPPS19 (peptide)
peptide: cyclo(T[dL]F[dPhe(3-F)]R[dA])
SMILES: CC(C)C[C@H]1NC(=O)[C@H]([C@@H](C)O)NC(=O)[C@@H](C)NC(=O)[C@H](CCCNC(=N)N)NC(=O)[C@@H](Cc2cccc(F)c2)NC(=O)[C@H](Cc2ccccc2)NC1=O
B26: CyPPS2 (peptide)
peptide: cyclo(A[dL]F[dF]R[dA])
SMILES: CC(C)C[C@H]1NC(=O)[C@H](C)NC(=O)[C@@H](C)NC(=O)[C@H](CCCNC(=N)N)NC(=O)[C@@H](Cc2ccccc2)NC(=O)[C@H](Cc2ccccc2)NC1=O

Biological target: 20S core particle (CP) proteasome
Assay: cell-based or functional assay

TAS-1 (percent stimulation of 20S CP) | Binder
203 % of DMSO | B1
199 % of DMSO | B2
198 % of DMSO | B3
124 % of DMSO | B4
152 % of DMSO | B5
126 % of DMSO | B6
278 % of DMSO | B7
173 % of DMSO | B8
370 % of DMSO | cyclo(T[dL]F[dF][Dap][dR]) (also: AA5 described as D-Dap in one passage, DAP in another) [CyPPS24]
298 % of DMSO | B9
242 % of DMSO | B10
283 % of DMSO | B11
246 % of DMSO | B12
289 % of DMSO | B13
280 % of DMSO | B14
297 % of DMSO | B15
170 % of DMSO | B16
238 % of DMSO | cyclo(T[dL]F[dF]R[dPra]) [CyPPS33]
212 % of DMSO | B17
259 % of DMSO | B18
305 % of DMSO | B19
101 % of DMSO | B20
178 % of DMSO | B21
185 % of DMSO | B22
109 % of DMSO | B23
275 % of DMSO | B24
287 % of DMSO | B25
241 % of DMSO | B26
